Assay results published in patent US20200024354A1 (OSSIANIX, published 2020).

B1: A07 formatted as a human Fc fusion (Fc fusion, not shown: a dimerising Fc or GST)
chain: AQAAARVDQTPQTITKETGESLTINCVLRDSNCALSNLYWYRKKSGSTNEESISLGGRYVETVNSGSKSFSLRINDLTVEDSGTYRCKVQLPYDPLTKECILGRMDVYGDGTAVTVN
B2: B07 formatted as a human Fc fusion (Fc fusion, not shown: a dimerising Fc or GST)
chain: AQAAARVDQTPRSVTKETGESLTINCVLRDSICALSSTHWYRKKSGSTNEESISKGGRYVETVNSGSKSFSLRINDLTVEDSGTYRCKVHGGRSTGLCGDVLLAGDVYGGGTAVTVN
B3: ID2-101B08 (VNAR)
VNAR: AARVDQTPQTITKETGESLTINCVLRDSNCALSSTLWYRTKSGSRNEESISKGGRYVETVNSGSKSFSLKINDLTVEDSGTYRCKVPRDLLLCKRPRARLPDVYGGGTAVTVNA
notes: Nurse shark VNAR single domain, monomer in periplasmic extract
B4: A07 formatted as a mouse Fc fusion protein with effector function intact (Fc fusion)
chain: AQAAARVDQTPQTITKETGESLTINCVLRDSNCALSNLYWYRKKSGSTNEESISLGGRYVETVNSGSKSFSLRINDLTVEDSGTYRCKVQLPYDPLTKECILGRMDVYGDGTAVTVNAASGAHHHHHHGADYKDDDDK
notes: also called A07-mFc; not shown: mouse Fc with effector function

Legend:
[1] = target: recombinant human BAFF-Fc (Sino Biological) (human) (UniProt Q9Y275); test: cell-based or functional assay
[2] = target: recombinant mouse BAFF (R&D Systems) (mouse, UniProt Q9WU72 127-309); test: cell-based or functional assay
[3] = target: T1, recombinant human BAFF-Fc (Sino Biological) (human, UniProt Q9Y275 134-285); test: cell-based or functional assay
[4] = target: T1, recombinant human BAFF-Fc (Sino …); test: blocking ELISA: periplasmic extract + 1.14 nM BAFF-Fc on coated BAFF-R extracellular domain, anti-human Fc-HRP
Description: The ability of selected BAFF-specific VNARs to prevent the binding of BAFF to its receptor (BAFF-R) was tested in a blocking ELISA format. Briefly, selected clones were grown in 96 deep-well plates and the periplasmic fraction was extracted as described above. Nunc Maxisorp 96-well plates were coated at 1 μg/mL with the BAFF-R extracellular domain (Peprotech) and blocked in PBS-0.1% Tween+2.5% milk. The periplasmic fraction was also pre-blocked in PBS-0.1% Tween-20+2.5% milk in the presence of 1.14 nM BAFF-Fc (Sino Biological) before being exposed to the BAFF-R coated surface. After washing in PBS-0.1% Tween-20, BAFF bound to its receptor was detected via its Fc moiety using a peroxidase-conjugated anti-human Fc (Sigma). Absorbance at 450 nm was recorded using an Envision multiwell reader (Perkin Elmer) (FIG. 8) and clones reducing the amount of BAFF bound to its receptor by more than 50% were selected as specific blockers.

human BAFF (recombinant) [5] = target: T2, human BAFF (recombinant) (human, UniProt Q9Y275 134-285); test: ELISA on coated human BAFF
T2 construct: also called hBAFF; recombinant BAFF (Sino biologicals)

human BAFF (recombinant) [6] = target: T2, human BAFF (recombinant); test: ELISA on coated human BAFF (legend of FIG. 18; rounded form of 0.632 nM)
Description: Based on the results of Example 11, the A07 anti-BAFF molecule was reformatted as a mouse Fc fusion protein with effector function intact. The protein was expressed and purified as described above and EC50 binding to human BAFF was assessed by ELISA as previously described. […] Mice are then injected i.p. with 100 μg of A07-Fc, 5A7-Fc, or blank control (PBS) on day 0 and again on day 4, 8, and 12 before being be culled on day 15. B cell subset populations in the spleen are analysed by flow cytometry as described above and improvements in B cell depletion are anticipated.

Sequence of recombinant mouse BAFF (R&D Systems) (Q9WU72 127-309 limits assumed): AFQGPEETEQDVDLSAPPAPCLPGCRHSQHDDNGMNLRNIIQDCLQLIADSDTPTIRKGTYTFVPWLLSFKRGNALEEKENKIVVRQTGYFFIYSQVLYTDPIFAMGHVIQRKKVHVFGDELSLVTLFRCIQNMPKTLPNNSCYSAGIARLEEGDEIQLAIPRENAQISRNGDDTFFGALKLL
T1 sequence (Q9Y275 134-285): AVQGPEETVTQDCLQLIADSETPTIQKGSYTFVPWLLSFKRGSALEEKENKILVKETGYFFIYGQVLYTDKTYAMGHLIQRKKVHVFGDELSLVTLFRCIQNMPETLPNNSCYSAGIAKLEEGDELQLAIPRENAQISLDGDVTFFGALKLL
T2 sequence (Q9Y275 134-285 limits assumed): as the sequence (Q9Y275 134-285) above
Sequence of recombinant human BAFF-Fc (Sino Biological) (human) (Q9Y275 134-285): as above

Row | Molecule | IC50 (mouse), proliferation of mouse splenic B cells [2] | IC50 (human), proliferation of mouse splenic B cells [3] | other results
1 | BAFFr (positive control, Example 10) (from UniProt Q96RJ3 1-76) (receptor) | 7.06 nM |  | IC50 (human), proliferation of mouse splenic B cells [1]: 66.2 nM
2 | B1 | 1.95 nM | 2.48 nM | 
3 | B2 | 604 nM | 3.79 nM | 
4 | B3 |  |  | binding result [4]: binds
5 | B4 |  |  | EC50 (human BAFF (recombinant) [5]): ~0.632 nM; EC50 (human BAFF (recombinant) [6]): ~0.6 nM
